Experimental data reported in the supplement of paper PMC9170038.

Experiments:
MS2 coat protein [1] = test: apparent KD of MS2 coat protein, switch ON state; designed switch direction (-1 OFF switch, 1 ON switch): 1; higher = weaker reporter binding; conditions: FMN input: 0 or 200 uM; Eterna round: R93 (includes R88 designs)
How it was run: (§1)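 The designed RNA switches were transcribed on-chip from Illumina sequencing clusters. In 100 mM Tris-HCl pH 7.5, 80 mM KCl and 4 mM MgCl2, without or with constant ligand, they were titrated with SNAP-549-labelled MS2 coat protein from 0.7 or 1.5 nM to 3 µM in twofold steps. Apparent KD is the per-design median of normalised cluster binding-curve fits.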

MS2 coat protein [2] = test: apparent KD of MS2 coat protein, switch OFF state (with FMN for OFF switches, without FMN for ON switches); designed switch direction (-1 OFF switch, 1 ON switch): 1; higher = weaker reporter binding; conditions: FMN input: 0 or 200 uM; Eterna round: R93 (includes R88 designs)
How it was run: as §1

Row | Sequence | apparent KD of MS2 coat protein (MS2 coat protein [1]) | apparent KD of MS2 coat protein (MS2 coat protein [2])
1 | GAGAUACAUGAGGAUCACCCAUGUUGAAAUAUGGGAGGAUAUACAAGGUCGAAAGAUAAGGUAGAAGGCCUAAAAG [LROPPY Same State 1 - v03_deltaG=1.1] | 39.1 nM | 176 nM
2 | AGGAAACAUGAGGAUCACCCAUGUAAAAAAUAUGGAGGAUAUGGAAACACGAAAGUGAAACCAGAAGGCUAAAAAA [77%, Mat - Mod of Eli, 24] | 17 nM | 26.9 nM
3 | GGGAGACAUGAGGAUCACCCAUGUGAGAAGAGGCGAGGAUAUCGAAAGAAAGAAGAGAAACGAGAAGGCGCGAGAG [salish99-SS1-057] | 48 nM | 59.8 nM
4 | AACAAUCUAUCUGAGGAUAUAUGUCGAAAGACAUGAGGAUCACCCAUGUGAAAACAUGAAAAAUCAUAGAAGGCAGAUAGAUUGA [SS2: 1138] | 49 nM | 393 nM
5 | AAAAAACAUGAGGAUCACCCAUGUAAAAAAAAUGGAGGAUAUUGGAAAAAAAAAAAAAAACGAGAAGGCUAAAAAA [quick and simple] | 44.4 nM | 50.4 nM
6 | AUAAGACAUGAGGAUCACCCAUGUAUUAGAGCAUGAGGAUAUAUGAAUAGUAAUAGGAGGAUAGAAGGCAUGGUUG [JR_SS001_Sub1218] | 92.6 nM | 138 nM
7 | CGAAAGGAGAGAGAGGAUAUCCAAAGGAAAACAUGAGGAUCACCCAUGUAGAAGGUAGGAGAUUGGGAGAAGGCUCAAGAAAGAG [salish99-ss2-144] | 23 nM | 27.5 nM
8 | GAGCCGCGGGCACAGGAUAUGCUCGGGCAAACAUGAGGAUCACCCAUGUGCGGCCUAAAUACGACGCAGAAGGGUGCUGGUGUGU [Orxeis] | 44 nM | 147 nM
9 | ACGGCACAUGAGGAUCACCCAUGUGCCGAGAGGCGAGGAUAUCGAAAAAAAAAAAAAAAACGAGAAGGCGCGAGAA [SameState1NO] | 12.6 nM | 11.1 nM
10 | AAAUUACAUGAGGAUCACCCAUGUUUAAAAAAUAUAGGAUAUGUAAAAAAAAAAAAAAAAACAGAAGGGUAAAAAA [I 'NO' this state well] | 25.1 nM | 25.4 nM
11 | AACAUACAUGAGGAUCACCCAUGUUCCGGCAGGUCAGGAUAUAUAUCGAAAGAGUUAUAAAUAGAAGGGACAUAAA [JR_SS001_Sub009] | 49.6 nM | 60.7 nM
12 | UAAAAACAUGAGGAUCACCCAUGUGAGAACAUGGGAGGAUAUACGAAGACGAAAGUCAAAGUAGAAGGCCUAAAAU [Mat - Same State 1 - Mod - D171] | 302 nM | 15.6 nM
13 | AAAUAACAUGAGGAUCACCCAUGUUACAACUUUACAGGAUAUGUGGGUGAAAAUAGCAUGACAGAAGGGUACAGUA [SameState1 Malc#35] | 171 nM | 158 nM
14 | AAAAAAAAAAGACAGGAUAUCCAAAAGAAAACAUGAGGAUCACCCAUGUAAAAGAAAAUAAAAUGGGAGAAGGGUCAAAAUAAAG [Mat - Same State 2 - JL mod - D74] | 9.39 nM | 58.2 nM
15 | AAGAAACAUGAGGAUCACCCAUGUAGAAAUAUGGGAGGAUAUACAAGGACGAGAGUCAAGGUAGAAGGCCUAAGAA [Mat - Same State 1 - Meechl mod - D134] | 17.6 nM | 111 nM
16 | GGGAAUAAAAGAGAGGAUAUCCAAAGGAAAACAUGAGGAUCACCCAUGUAAAAGGAAGGAAAUUGGGAGAAGGCUCAAGAUAGGG [salish99-ss2-012] | 29.4 nM | 26.1 nM

Row | Sequence | apparent KD of MS2 coat protein (MS2 coat protein [1]) | apparent KD of MS2 coat protein (MS2 coat protein [2])
17 | AUAUGACAUGAGGAUCACCCAUGUAUUCGAGCAUGAGGAUAUAUGACUAGUCAUAGGAGGAUAGAAGGCAUGGUUG [JR_SS001_Sub1217] | 76.2 nM | 169 nM
18 | GGCUGCGUUGUGAAGGAUAUCCGCGUCUGGACAUGAGGAUCACCCAUGUAUACUUGGAUCGUGCAGGAGAAGGUCAAGGGUGAUU [JR_SS002_Sub1211] | 130 nM | 63.3 nM
19 | UUUAAUUACACGAAGGAUAUCGAUUUUCAGACAUGAGGAUCACCCAUGUAGUAGAUUUCCCUGUUCGAGAAGGUCGCGGGUGAAC [JR_SS002_Sub602] | 39.3 nM | 30.3 nM
20 | AACUACAUUAUGAAGGAUAUCCACAUCUAGACAUGAGGAUCACCCAUGUAUACUUAGAUCAUACAGGAGAAGGUCAAGGGUGAUU [JR_SS002_Sub1208] | 172 nM | 131 nM
21 | AAAAAACAUGAGGAUCACCCAUGUAAAAAUAUGGAAGGAUAUGGAAACACGAAAGUGAAACCAGAAGGUCUAAAAG [77%, Mat - Mod of Eli, 10] | 17.1 nM | 21.3 nM
22 | AAAGAAAAACUAGAGGAUAUCCGAGUGGUAACAUGAGGAUCACCCAUGUGAAGAAAGGAACAUAUGGAGAAGGCUAGAAGAAAAA [JL Nando Mod 4] | 63.5 nM | 438 nM
23 | AAACCACAUGAGGAUCACCCAUGUGUAAAAAAUACAGGAUAUGGAAACACGAAAGUGAAACCAGAAGGGUGGAAAA [77%, Mat - Mod of Eli, 29] | 31.6 nM | 28.3 nM
24 | AGAAAGAAUAGAGAGGAUAUCUAUAAGAAAACAUGAGGAUCACCCAUGUAAAAGAAAAGAAAAUGGGAGAAGGCUCAUAAGAAAG [JL Skelter Mod 6 In the Red] | 186 nM | 71.6 nM
25 | AAGAAACAUGAGGAUCACCCAUGUAAGAUAAACACAGGAUAUGCGAAAAGAAACAAAGAAGCAGAAGGGUGAAGAA [Ex5 sub 1] | 17 nM | 35.7 nM
26 | UAUCAUUACACGAAGGAUAUCGAUAAUUGAACAUGAGGAUCACCCAUGUGAUAUAUUUUACAGUUCGAGAAGGUCGAGGGUGAAG [JR_SS002_Sub705] | 16.6 nM | 32.4 nM
27 | GAGAAGAAGAGAGAGGAUAUCCAAAGGAAAACAUGAGGAUCACCCAUGUAAAAGGUAGGAAAUUGGGAGAAGGCUCAGAAGAGGG [salish99-ss2-030] | 23.2 nM | 26.6 nM
28 | GCUCCAGCUAGCAAGGAUAUGUAGGAUGCUACAUGAGGAUCACCCAUGUGCUGAAAUAAGUCCCGGCAGAAGGUGUGACUGGAGC [Quleorla] | 13.8 nM | 19.9 nM
29 | UUUCAUUACACGAAGGAUAUCGCUUUUCCGACAUGAGGAUCACCCAUGUAGUAGACCUCCCUGUUCGAGAAGGUCGCGGGUGAAC [JR_SS002_Sub604] | 192 nM | 32.4 nM
30 | AUAUAUAAAAGGUAGGAUAUUCUAAAAUAAACAUGAGGAUCACCCAUGUAAAAAAAGAAACUCAUGGAGAAGGACCAUAUAUAUA [ss2 6th modifying Eli's mod of Tesla] | 31.5 nM | 44.5 nM
31 | GAAAAACAUGAGGAUCACCCAUGUGUAAAUAUGGAAGGAUAUACAAAGACGAAAGUCAAAGUAGAAGGUCUAAAAG [Mat - Same State 1 - Eli mod - D16] | 23.5 nM | 28.9 nM
32 | AAAUAAAUGACUGAGGAUAUAUCGAAGAAGACAUGAGGAUCACCCAUGUAAUAAUAAAAAGGGUGGUAGAAGGUAGUCAACAAAC [Mod 9 of Pariah 4 by Hyphema in Round 1] | 331 nM | 376 nM
